test system: Escherichia coli TOP10; assay: shrunken log2 fold change of peptide-encoding DNA abundance (4.5 h post-induction vs induction); higher = less antimicrobial activity (less host growth inhibition); details: time post-induction: 4.5 h; library: site-saturation at positions 5, 18, 19, 20
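Further: peptides expressed intracellularly from a pBAD plasmid library in pooled LB shake-flask culture, induced with 0.3% L-arabinose, DNA abundance read by NGS, three biological replicates, DESeq2 with apeglm shrinkage.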

| Sequence | shrunken log2 fold change |
| --- | --- |
| RRIRDRPPRLPRPRPRPVGNPRP | 0.114 |
| RRIRGRPPRLPRPRPRPWAEPRP | 2.19 |
| RRIRSRPPRLPRPRPRPHFGPRP | -0.195 |
| RRIRLRPPRLPRPRPRPLDHPRP | -0.1 |
| RRIRWRPPRLPRPRPRPVPEPRP | 0.634 |
| RRIRKRPPRLPRPRPRPVAHPRP | 0.353 |
| RRIRFRPPRLPRPRPRPNQQPRP | -0.0474 |
| RRIRVRPPRLPRPRPRPNQKPRP | -0.115 |
| RRIRARPPRLPRPRPRPRWTPRP | 0.145 |
| RRIRERPPRLPRPRPRPGFGPRP | 0.0959 |
| RRIRQRPPRLPRPRPRPNLPPRP | 0.0275 |
| RRIRARPPRLPRPRPRPIKRPRP | 0.0415 |
| RRIRHRPPRLPRPRPRPWDKPRP | -0.000233 |
| RRIRLRPPRLPRPRPRPTWFPRP | 0.0207 |
| RRIRKRPPRLPRPRPRPEADPRP | 0.00157 |
| RRIRDRPPRLPRPRPRPNQVPRP | -0.329 |
| RRIRFRPPRLPRPRPRPSHNPRP | -0.782 |
| RRIRSRPPRLPRPRPRPWIKPRP | -0.34 |
| RRIRQRPPRLPRPRPRPLNLPRP | -0.249 |
| RRIRNRPPRLPRPRPRPEPCPRP | -0.0302 |
| RRIRYRPPRLPRPRPRPIGRPRP | -0.0417 |
| RRIRIRPPRLPRPRPRPEGHPRP | -0.00139 |
| RRIRLRPPRLPRPRPRPAWAPRP | 0.232 |
| RRIRMRPPRLPRPRPRPLTGPRP | 0.0753 |
| RRIRKRPPRLPRPRPRPCSEPRP | 0.296 |

| Sequence | shrunken log2 fold change |
| --- | --- |
| RRIRTRPPRLPRPRPRPMFLPRP | -0.593 |
| RRIRARPPRLPRPRPRPYYKPRP | -0.675 |
| RRIRVRPPRLPRPRPRPRHWPRP | 0.293 |
| RRIRPRPPRLPRPRPRPCGQPRP | 0.311 |
| RRIRHRPPRLPRPRPRPRSRPRP | -0.132 |
| RRIRHRPPRLPRPRPRPVTEPRP | -0.0954 |
| RRIRARPPRLPRPRPRPCIDPRP | 0.306 |
| RRIRRRPPRLPRPRPRPTLSPRP | -0.0436 |
| RRIRWRPPRLPRPRPRPWEPPRP | -0.0178 |
| RRIRKRPPRLPRPRPRPDGIPRP | 0.00242 |
| RRIRMRPPRLPRPRPRPWNPPRP | 0.12 |
| RRIRKRPPRLPRPRPRPWGRPRP | 0.179 |
| RRIRCRPPRLPRPRPRPHRAPRP | -0.096 |
| RRIRPRPPRLPRPRPRPVLKPRP | -0.267 |
| RRIRERPPRLPRPRPRPDSYPRP | -0.00865 |
| RRIRVRPPRLPRPRPRPERNPRP | -0.323 |
| RRIRVRPPRLPRPRPRPHLDPRP | 0.0818 |
| RRIRIRPPRLPRPRPRPHEIPRP | -0.256 |
| RRIRRRPPRLPRPRPRPMTVPRP | -0.238 |
| RRIRMRPPRLPRPRPRPLMFPRP | 0.0219 |
| RRIRYRPPRLPRPRPRPRRVPRP | 0.00201 |
| RRIRMRPPRLPRPRPRPMYEPRP | 0.221 |
| RRIRSRPPRLPRPRPRPEFWPRP | 0.281 |
| RRIRMRPPRLPRPRPRPIEQPRP | 0.0161 |
| RRIRERPPRLPRPRPRPRCEPRP | 0.0736 |

| Sequence | shrunken log2 fold change |
| --- | --- |
| RRIRTRPPRLPRPRPRPGQMPRP | 0.0303 |
| RRIRHRPPRLPRPRPRPEHGPRP | -0.00141 |
| RRIRARPPRLPRPRPRPMGPPRP | 0.161 |
| RRIRCRPPRLPRPRPRPQSKPRP | -0.448 |
| RRIRMRPPRLPRPRPRPKKVPRP | 0.561 |
| RRIRDRPPRLPRPRPRPEGGPRP | 0.966 |
| RRIRLRPPRLPRPRPRPYHFPRP | -0.26 |
| RRIRTRPPRLPRPRPRPFAAPRP | 0.08 |
| RRIRARPPRLPRPRPRPERAPRP | 0.845 |
| RRIRDRPPRLPRPRPRPCTDPRP | -0.00136 |
| RRIRNRPPRLPRPRPRPHPHPRP | -0.576 |
| RRIRRRPPRLPRPRPRPCWMPRP | 0.415 |
| RRIRKRPPRLPRPRPRPYETPRP | 0.00149 |
| RRIRFRPPRLPRPRPRPNPWPRP | -0.0447 |
| RRIRMRPPRLPRPRPRPSMFPRP | -0.368 |
| RRIRNRPPRLPRPRPRPLQIPRP | -0.143 |
| RRIRMRPPRLPRPRPRPFYIPRP | -0.31 |
| RRIRARPPRLPRPRPRPMQHPRP | 0.642 |
| RRIRCRPPRLPRPRPRPIDVPRP | -0.856 |
| RRIRFRPPRLPRPRPRPPILPRP | -0.254 |
| RRIRWRPPRLPRPRPRPLEFPRP | 0.0696 |
| RRIRARPPRLPRPRPRPHEHPRP | 0.0352 |
| RRIRYRPPRLPRPRPRPIKDPRP | -0.171 |
| RRIRERPPRLPRPRPRPSNKPRP | -0.811 |
| RRIRKRPPRLPRPRPRPIGKPRP | 0.0962 |

| Sequence | shrunken log2 fold change |
| --- | --- |
| RRIRHRPPRLPRPRPRPCHIPRP | -0.454 |
| RRIRWRPPRLPRPRPRPVCRPRP | 0.353 |
| RRIRSRPPRLPRPRPRPKHFPRP | 0.0852 |
| RRIRPRPPRLPRPRPRPCHQPRP | 0.0122 |
| RRIRYRPPRLPRPRPRPPLLPRP | -0.385 |
| RRIRIRPPRLPRPRPRPSAQPRP | -0.0807 |
| RRIRWRPPRLPRPRPRPNYTPRP | -0.279 |
| RRIRHRPPRLPRPRPRPQEWPRP | -0.119 |
| RRIRYRPPRLPRPRPRPWMCPRP | -0.0907 |
| RRIRVRPPRLPRPRPRPLRLPRP | 0.641 |
| RRIRYRPPRLPRPRPRPWQKPRP | -0.166 |
| RRIRDRPPRLPRPRPRPELAPRP | 1.68 |
| RRIRGRPPRLPRPRPRPPRVPRP | 1.15 |
| RRIRYRPPRLPRPRPRPDFDPRP | -0.0161 |
| RRIRWRPPRLPRPRPRPVTIPRP | -0.269 |
| RRIRDRPPRLPRPRPRPMMEPRP | 0.0314 |
| RRIRHRPPRLPRPRPRPEWKPRP | -0.00613 |
| RRIRCRPPRLPRPRPRPEQMPRP | 0.45 |
| RRIRLRPPRLPRPRPRPFLIPRP | -0.666 |
| RRIRKRPPRLPRPRPRPRIFPRP | -0.0494 |
| RRIRDRPPRLPRPRPRPTWGPRP | 0.282 |
| RRIRWRPPRLPRPRPRPQNKPRP | -0.536 |
| RRIRQRPPRLPRPRPRPDPDPRP | -0.00136 |
| RRIRCRPPRLPRPRPRPWIYPRP | -0.821 |
| RRIRLRPPRLPRPRPRPLKNPRP | -0.295 |

| Sequence | shrunken log2 fold change |
| --- | --- |
| RRIRYRPPRLPRPRPRPFHPPRP | -0.146 |
| RRIRVRPPRLPRPRPRPVLTPRP | 0.146 |
| RRIRWRPPRLPRPRPRPCEGPRP | 0.00476 |
| RRIRHRPPRLPRPRPRPQENPRP | -0.245 |
| RRIRRRPPRLPRPRPRPQQLPRP | -0.0976 |
| RRIRWRPPRLPRPRPRPLIVPRP | 0.0513 |
| RRIRGRPPRLPRPRPRPCLIPRP | -0.183 |
| RRIRARPPRLPRPRPRPHNVPRP | -0.0333 |
| RRIRMRPPRLPRPRPRPERTPRP | 0.00114 |
| RRIRYRPPRLPRPRPRPHWYPRP | -1.02 |
| RRIRIRPPRLPRPRPRPNMTPRP | -0.804 |
| RRIRSRPPRLPRPRPRPAEAPRP | 0.429 |
| RRIRMRPPRLPRPRPRPPCEPRP | 1.11 |
| RRIRFRPPRLPRPRPRPCMWPRP | -0.258 |
| RRIRERPPRLPRPRPRPVAYPRP | -0.178 |
| RRIRKRPPRLPRPRPRPKKGPRP | 0.368 |
| RRIRPRPPRLPRPRPRPVATPRP | 0.524 |
| RRIRERPPRLPRPRPRPNKWPRP | -0.576 |
| RRIRTRPPRLPRPRPRPAGMPRP | 0.0244 |
| RRIRDRPPRLPRPRPRPFRLPRP | -0.0192 |
| RRIRYRPPRLPRPRPRPSYAPRP | -0.149 |
| RRIRCRPPRLPRPRPRPLHKPRP | -0.0345 |
| RRIRKRPPRLPRPRPRPWSAPRP | 0.0935 |
| RRIRVRPPRLPRPRPRPIPWPRP | -0.232 |
| RRIRLRPPRLPRPRPRPFIAPRP | -0.496 |

| Sequence | shrunken log2 fold change |
| --- | --- |
| RRIRNRPPRLPRPRPRPMQCPRP | 0.0637 |
| RRIRKRPPRLPRPRPRPCIDPRP | -0.0418 |
| RRIRCRPPRLPRPRPRPNWMPRP | -0.805 |
| RRIRCRPPRLPRPRPRPQLDPRP | -0.142 |
| RRIRERPPRLPRPRPRPQFCPRP | -0.0627 |
| RRIRCRPPRLPRPRPRPANMPRP | -0.277 |
| RRIRCRPPRLPRPRPRPHTTPRP | -0.716 |
| RRIRERPPRLPRPRPRPMGEPRP | -0.00192 |
| RRIRMRPPRLPRPRPRPLHPPRP | 0.439 |
| RRIRHRPPRLPRPRPRPGPFPRP | -0.225 |
| RRIRARPPRLPRPRPRPFNKPRP | -0.0214 |
| RRIRSRPPRLPRPRPRPVGWPRP | 0.839 |
| RRIRDRPPRLPRPRPRPYTMPRP | -0.0014 |
| RRIRKRPPRLPRPRPRPMMMPRP | 0.619 |
| RRIRVRPPRLPRPRPRPAWSPRP | 0.192 |
| RRIRARPPRLPRPRPRPQEHPRP | 0.515 |
| RRIRCRPPRLPRPRPRPQFNPRP | -0.98 |
| RRIRNRPPRLPRPRPRPMSIPRP | 0.00262 |
| RRIRARPPRLPRPRPRPEEYPRP | -0.0897 |
| RRIRYRPPRLPRPRPRPCKAPRP | -0.073 |
| RRIRMRPPRLPRPRPRPVPDPRP | 0.239 |
| RRIRDRPPRLPRPRPRPHLRPRP | -0.00431 |
| RRIRIRPPRLPRPRPRPFVPPRP | -0.722 |
| RRIRWRPPRLPRPRPRPQCGPRP | -0.0434 |
| RRIRHRPPRLPRPRPRPAGKPRP | 0.0288 |
